{"source": "patent US20130108682A1", "about": "“WOUND CARE PRODUCT COMPRISING A CATHELICIDIN POLYPEPTIDE” (LIPOPEPTIDE AB, priority 2007, published 2013)", "assay": "Release of LL-37 from coated polyurethane (PU) foam, quantified by ELISA", "format": "physicochemical", "conditions": "for % LL-37 released in solution: PU foam, data not shown", "description": "LL-37 dissolved in PBS or ethanol was absorbed onto PU foam at a concentration of 25 μg LL-37/cm^2. A 1×1 cm piece of each preparation was cut, placed into a glass vial containing 3 ml PBS, and incubated under agitation for 24 h. At various time points (10, 20, 45, 120 min, and 24 h), 100 μl samples were collected and the amount of LL-37 released in solution was evaluated by ELISA. Results are expressed as the % LL-37 released in solution.\nLL-37 was dissolved in ethanol or in PBS and 1 ml suspension was dropped onto 2×2 cm pieces of polyurethane (PU) foam (Brightwake, Kirkby-in-Ashfield, United Kingdom). The samples were allowed to dry at room temperature (RT) until no further weight loss could be recorded. Unless otherwise noted, a LL-37 solution at 100 μg/ml was used, resulting in a concentration of 25 μg LL-37/cm^2.\nLL-37 was also mixed with various excipients before being applied onto the 2×2 cm PU foams. LL-37 dissolved in PBS was added to dry galactolipid and the resulting dispersion was vigorously shaken for 1 h. The galactolipid concentration was 0.2% (w/w). LL-37 dissolved in water was added to a preformed gel consisting of 25% poloxamer (Lutrol F127) in water. The resulting mixtures of about 1 g were heated at about 60° C. for about 10 min to evaporate the alcohol. The formulations were then applied with a spatula on 2×2 cm pieces of PU. In case the formulation contained water, PU foams were dried at RT for at least 24 h.\nTo release LL-37 from coated PU foam, 1×1 cm samples were cut and weighed in order to calculate the amount of LL-37 present in each sample. Each PU foam sample was placed into a 15 ml glass vial containing 3 ml PBS and incubated at RT for the indicated time period with constant shaking of 6 rpm. At various time intervals (10, 20, 45, 120 min, and 24 h), 100 μl release sample was removed for analysis and replaced with 100 μl fresh PBS. Release samples were stored at 4° C. until analysis, usually for 24 h.\nThe release was calculated as the total amount of LL-37 in the release liquid divided by the amount of loaded LL-37 in the sample.\nLL-37 was detected and quantified using an enzyme-linked immunosorbent assay (ELISA) based on the protocol developed by Lindgreen and colleagues (Lindgreen 2004). Medium binding capacity 96-well plates (Greiner Bio-one, Frickenhausen Germany) were coated with […] rabbit IgG anti-LL-37 antibodies (Agrisera, Vännäs, Sweden) in 200 μl coating buffer (0.1M bicarbonate buffer, pH 9.0) for 18 to 24 h at 2-8° C. […] Reaction was stopped by addition of 50 μl 1 M sulfuric acid and absorbance immediately read at 450 nm (OD450 nm) using a VERSAmax microplate reader equipped with SoftMax Pro software for analysis (Molecular Devices)."}
{"sequence": "LLGDFFRKSKEKIGKEFKRIVQRIKDFLRNLVPRTES [LL-37]", "values": [{"measurement": "% LL-37 released in solution (maximum)", "setting": "PU foam with 25 μg LL-37, peptide formulated in PBS or in ethanol, 3 ml PBS, shaking, after 24 h incubation", "result": 30, "unit": "%"}, {"measurement": "% LL-37 released in solution", "setting": "LL-37 formulated in galactolipid (ethanol or PBS solutions)", "result": "No detectable"}, {"measurement": "% LL-37 released in solution", "setting": "LL-37 formulated in poloxamer (Lutrol)", "result": 1, "unit": "%"}, {"measurement": "LL-37 concentration in release sample as determined by ELISA", "setting": "release sample from PU foam where LL-37 in PBS has been absorbed, used in second chemotaxis experiment", "result": "4,500 ng/ml"}]}
